In the supplement of paper PMC7877785:
± gives the uncertainty stated by the source.

Test: self-splicing fitness, log relative to wild type (ln ratio); higher = more splicing; Tetrahymena group I intron in knt gene, E. coli kanamycin selection, DiMSum; sequences stand for … in CUCUCU…GGAGGGAAAAGUUAUCAGGCAUGCACCUGGUAGCUAGUCUUUAAACCAAUAGAUUGCAUCGGUUUAAAAGGCAAGACCGUCAAAUUGCGGGAAAGGGGUCAACAGCCGUUCAGUACCAAGUCUCAGGGGAAACUUUGAGAUGGCCUUGCAAAGGGUAUGGUAAUAAGCUGACGGACAUGGUCCUAACCACGCAGCCAAGUCCUAAGUCAACAGAUCUUCUGUUGAUAUGGAUGCAGUUCACAGACUAAAUGUCGGUCGGGGAAGAUGUAUUCUUCUCAUAAGAUAUAGUCGGACCUCUCCUUAAUGGGAGCUAGCGGAUGAAGUGAUGCAACACUGGAGCCGCUGGGAACUAAUUUGUAUGCGAAAGUAUAUUGAUUAGUUUUGGAGUACUCGUGGUCG
Outline: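 Library with all eight P1ex-region intron nucleotides randomised, intron inside the knt kanamycin-resistance gene on pET-22b(+), in E. coli BL21(DE3). Cells grew overnight at 37°C or 30°C on LB agar with or without 25 μg/mL kanamycin (plus 100 μg/mL carbenicillin, 50 μM IPTG, 0.2% rhamnose), in six replicate transformations. Pooled colonies were amplicon-sequenced on Illumina HiSeq 2500. DiMSum fitness is the error-weighted combination of wild-type-normalised replicate fold changes, kanamycin versus none.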

Sequence | self-splicing fitness (ln) (30 °C) | self-splicing fitness (ln) (37 °C)
GUCAAGCAAUAUUACGAGGU | -2.65 ± 0.26 | -3.03 ± 0.37
GUCAAGCAAUAUUACGAGUG | -3.56 ± 0.17 | -1.69 ± 0.16
GUCAAGCAAUAUUACGAUCA | -1.76 ± 0.23 | -0.845 ± 0.15
GUCAAGCAAUAUUACGCGAU | -4.38 ± 0.28 | -3.64 ± 0.39
GUCAAGCAAUAUUACGCGUC | -2.99 ± 0.15 | -2.22 ± 0.19
GUCAAGCAAUAUUACGCUCG | -2.95 ± 0.14 | -1.18 ± 0.12
GUCAAGCAAUAUUACGCUGU | -3.26 ± 0.13 | -2.42 ± 0.19
GUCAAGCAAUAUUACGGAUA | -2.47 ± 0.19 | -1.27 ± 0.17
GUCAAGCAAUAUUACGGCCG | -2.31 ± 0.4 | –
GUCAAGCAAUAUUACGGCGG | -4.75 ± 0.32 | -2.83 ± 0.24
GUCAAGCAAUAUUACGGCGU | -1.04 ± 0.083 | -0.0377 ± 0.1
GUCAAGCAAUAUUACGGGCA | -3.61 ± 0.41 | -2.97 ± 0.3
GUCAAGCAAUAUUACGGGCC | -3.75 ± 0.27 | -2.77 ± 0.31
GUCAAGCAAUAUUACGGGGU | -5.42 ± 0.25 | -4.15 ± 0.19
GUCAAGCAAUAUUACGGUAG | -3.35 ± 0.18 | -4.66 ± 0.38
GUCAAGCAAUAUUACGGUUU | -2.48 ± 0.075 | -1.44 ± 0.077
GUCAAGCAAUAUUACGUAUU | -2.98 ± 0.12 | -1.84 ± 0.1
GUCAAGCAAUAUUACGUCCA | -2.58 ± 0.25 | -0.387 ± 0.12
GUCAAGCAAUAUUACGUCCG | – | -3.83 ± 0.39
GUCAAGCAAUAUUACGUGUG | -2.69 ± 0.068 | -1.61 ± 0.071
GUCCAGCAAUAUUACGACGU | 0.172 ± 0.091 | 0.365 ± 0.085
GUCCAGCAAUAUUACGAUAU | -0.337 ± 0.056 | 0.114 ± 0.065
